# According to the supplement of paper PMC10065799, “High-throughput profiling of sequence recognition by tyrosine kinases and SH2 domains using bacterial peptide display” (eLife, 2023):
# Biological target: SHP2-C SH2
# Test: SH2 binding enrichment of the phosphorylated peptide, bacterial display (enrichment ratio); higher = better substrate or ligand; peptides without Tyr show the background
# 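For SH2 binding enrichment of the phosphorylated peptide, bacterial display in this document: peptide library displayed on the E. coli surface as eCPX fusions, selected cells deep-sequenced, score is each peptide's frequency after selection divided by its frequency in the input.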
# 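For phosphorylation enrichment, bacterial display in this document: 11-residue human phosphosite peptides and single-mutation variants displayed on the E. coli surface, counted by deep sequencing, each peptide's frequency after selection divided by its frequency in the unselected input library; frequency after pTyr selection over input frequency; kinase dosed for 20-30% of maximal phosphorylation in three min.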
row,Sequence,SH2 binding enrichment
1,QGGRRYMMIVD [GAA_Y438],0.776
2,CCKNRYDKDKP [THAP1_Y14_G9C],0.686
3,RPASQYPHQVP [ADAM12_Y895_P893S],0.791
4,KMKGDYYCYLA [YWHAG_Y130_R132C],0.836
5,HESEIYGKVCY [CSRP3_Y57_C58G],0.344
6,EESREYDRLYE [PIK3R1_Y463_K459E],0.701
7,WNRDKYAATTT [TRIM39_Y439_G436R],0.798
8,CEAMEYLESKQ [BTK_Y511],0.553
9,VLAAQYTTVGR [SGSH_Y240_D235V],2.77
10,PLAVPYLDKPP [JMJD7_Y31],1.1
11,IPKTWYSAEQF [CD207_Y217],0.914
12,NTYEKYLGEEY [TF_Y669],0.722
13,RAIGFYSATSK [FAM120A_Y328_YF],0.95
14,SIIKDYFHRGT [GATM_Y203_A208T],0.631
15,RIVRKYKKVRF [F8_Y442_G439V],0.503
16,GLRFGYGVLGG [KRTAP20-2_Y15_YF],0.893
17,SVTFTYSPALN [TP53_Y126_C124Y_YF],0.705

row,Sequence,SH2 binding enrichment
1,IRCQGYSHRIL [MYO3B_Y993_R990C],0.915
2,IDSTPYGQWFE [RPS8_Y109_R110G_YF],0.697
3,SVQIVYKPVDL [MAPT_Y627],0.845
4,GSPPPYRRRKR [MBD1_Y403],0.41
5,EEGNPYFSSTR [MCCC2_Y520_A524T_YF],0.588
6,PPGRSYSPYDY [TNS1_Y793],1.52
7,VHNLNYYKKTT [FGFR3_Y647_D646N],0.746
8,APGDAYGDAGY [SYP_Y250],0.616
9,GDYLSYREFHS [ERBIN_Y1107],0.539
10,GGCQEYTGAPF [NAXD_Y85_YF],0.576
11,HSDFQYSQRSQ [PKP2_Y168_YF],0.832
12,GAALAYGLDKS [HSPA9_Y230_A225G],0.696
13,GVFSRYFTTFD [CLCA1_Y661_YF],0.789
14,TSPKSYPSQKH [CAP2_Y316],0.433
15,PLDAEYFTLQI [TP53_Y327_G325A],0.738
16,VNYGAYINDFN [GLB1_Y488_K493N],1.05

# Biological target: Grb2 SH2 (UniProt P62993)
# Test: as above
# Sequence of Grb2 SH2 (P62993 whole entry, looked up): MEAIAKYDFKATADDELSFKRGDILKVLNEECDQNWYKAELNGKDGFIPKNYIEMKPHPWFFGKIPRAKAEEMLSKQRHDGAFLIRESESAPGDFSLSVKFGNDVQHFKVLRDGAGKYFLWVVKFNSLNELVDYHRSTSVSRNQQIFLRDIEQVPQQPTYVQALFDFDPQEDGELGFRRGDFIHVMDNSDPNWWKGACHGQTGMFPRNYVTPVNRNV
row,Sequence,SH2 binding enrichment
1,QGGRRYMMIVD [GAA_Y438],0.965
2,CCKNRYDKDKP [THAP1_Y14_G9C],1.01
3,RPASQYPHQVP [ADAM12_Y895_P893S],0.883
4,KMKGDYYCYLA [YWHAG_Y130_R132C],0.743
5,HESEIYGKVCY [CSRP3_Y57_C58G],0.77
6,EESREYDRLYE [PIK3R1_Y463_K459E],0.671
7,WNRDKYAATTT [TRIM39_Y439_G436R],0.772
8,CEAMEYLESKQ [BTK_Y511],0.676
9,VLAAQYTTVGR [SGSH_Y240_D235V],0.953
10,PLAVPYLDKPP [JMJD7_Y31],0.867
11,IPKTWYSAEQF [CD207_Y217],0.876
12,NTYEKYLGEEY [TF_Y669],0.971
13,RAIGFYSATSK [FAM120A_Y328_YF],0.989
14,SIIKDYFHRGT [GATM_Y203_A208T],0.685
15,RIVRKYKKVRF [F8_Y442_G439V],0.652
16,GLRFGYGVLGG [KRTAP20-2_Y15_YF],0.674
17,SVTFTYSPALN [TP53_Y126_C124Y_YF],0.862

row,Sequence,SH2 binding enrichment
1,IRCQGYSHRIL [MYO3B_Y993_R990C],0.925
2,IDSTPYGQWFE [RPS8_Y109_R110G_YF],0.821
3,SVQIVYKPVDL [MAPT_Y627],0.951
4,GSPPPYRRRKR [MBD1_Y403],0.597
5,EEGNPYFSSTR [MCCC2_Y520_A524T_YF],0.884
6,PPGRSYSPYDY [TNS1_Y793],0.502
7,VHNLNYYKKTT [FGFR3_Y647_D646N],1.04
8,APGDAYGDAGY [SYP_Y250],0.815
9,GDYLSYREFHS [ERBIN_Y1107],0.972
10,GGCQEYTGAPF [NAXD_Y85_YF],0.817
11,HSDFQYSQRSQ [PKP2_Y168_YF],0.99
12,GAALAYGLDKS [HSPA9_Y230_A225G],0.786
13,GVFSRYFTTFD [CLCA1_Y661_YF],0.891
14,TSPKSYPSQKH [CAP2_Y316],0.823
15,PLDAEYFTLQI [TP53_Y327_G325A],0.779
16,VNYGAYINDFN [GLB1_Y488_K493N],9.16

# Biological target: c-Src SH2
# Test: as above
row,Sequence,SH2 binding enrichment
1,QGGRRYMMIVD [GAA_Y438],3.68
2,CCKNRYDKDKP [THAP1_Y14_G9C],0.542
3,RPASQYPHQVP [ADAM12_Y895_P893S],0.53
4,KMKGDYYCYLA [YWHAG_Y130_R132C],0.837
5,HESEIYGKVCY [CSRP3_Y57_C58G],0.422
6,EESREYDRLYE [PIK3R1_Y463_K459E],7.14
7,WNRDKYAATTT [TRIM39_Y439_G436R],0.498
8,CEAMEYLESKQ [BTK_Y511],0.402
9,VLAAQYTTVGR [SGSH_Y240_D235V],5.28
10,PLAVPYLDKPP [JMJD7_Y31],0.398
11,IPKTWYSAEQF [CD207_Y217],0.574
12,NTYEKYLGEEY [TF_Y669],2.41
13,RAIGFYSATSK [FAM120A_Y328_YF],0.886
14,SIIKDYFHRGT [GATM_Y203_A208T],0.469
15,RIVRKYKKVRF [F8_Y442_G439V],0.477
16,GLRFGYGVLGG [KRTAP20-2_Y15_YF],0.493
17,SVTFTYSPALN [TP53_Y126_C124Y_YF],0.457

row,Sequence,SH2 binding enrichment
1,IRCQGYSHRIL [MYO3B_Y993_R990C],0.824
2,IDSTPYGQWFE [RPS8_Y109_R110G_YF],0.561
3,SVQIVYKPVDL [MAPT_Y627],0.515
4,GSPPPYRRRKR [MBD1_Y403],0.458
5,EEGNPYFSSTR [MCCC2_Y520_A524T_YF],0.549
6,PPGRSYSPYDY [TNS1_Y793],3.08
7,VHNLNYYKKTT [FGFR3_Y647_D646N],0.539
8,APGDAYGDAGY [SYP_Y250],0.464
9,GDYLSYREFHS [ERBIN_Y1107],0.407
10,GGCQEYTGAPF [NAXD_Y85_YF],0.508
11,HSDFQYSQRSQ [PKP2_Y168_YF],0.581
12,GAALAYGLDKS [HSPA9_Y230_A225G],0.488
13,GVFSRYFTTFD [CLCA1_Y661_YF],0.395
14,TSPKSYPSQKH [CAP2_Y316],0.538
15,PLDAEYFTLQI [TP53_Y327_G325A],0.43
16,VNYGAYINDFN [GLB1_Y488_K493N],6.95

# Biological target: FGFR3 (UniProt P22607)
# Test: phosphorylation enrichment, bacterial display (enrichment ratio); higher = better substrate or ligand; peptides without Tyr show the background
# Sequence of FGFR3 (P22607 whole entry, looked up): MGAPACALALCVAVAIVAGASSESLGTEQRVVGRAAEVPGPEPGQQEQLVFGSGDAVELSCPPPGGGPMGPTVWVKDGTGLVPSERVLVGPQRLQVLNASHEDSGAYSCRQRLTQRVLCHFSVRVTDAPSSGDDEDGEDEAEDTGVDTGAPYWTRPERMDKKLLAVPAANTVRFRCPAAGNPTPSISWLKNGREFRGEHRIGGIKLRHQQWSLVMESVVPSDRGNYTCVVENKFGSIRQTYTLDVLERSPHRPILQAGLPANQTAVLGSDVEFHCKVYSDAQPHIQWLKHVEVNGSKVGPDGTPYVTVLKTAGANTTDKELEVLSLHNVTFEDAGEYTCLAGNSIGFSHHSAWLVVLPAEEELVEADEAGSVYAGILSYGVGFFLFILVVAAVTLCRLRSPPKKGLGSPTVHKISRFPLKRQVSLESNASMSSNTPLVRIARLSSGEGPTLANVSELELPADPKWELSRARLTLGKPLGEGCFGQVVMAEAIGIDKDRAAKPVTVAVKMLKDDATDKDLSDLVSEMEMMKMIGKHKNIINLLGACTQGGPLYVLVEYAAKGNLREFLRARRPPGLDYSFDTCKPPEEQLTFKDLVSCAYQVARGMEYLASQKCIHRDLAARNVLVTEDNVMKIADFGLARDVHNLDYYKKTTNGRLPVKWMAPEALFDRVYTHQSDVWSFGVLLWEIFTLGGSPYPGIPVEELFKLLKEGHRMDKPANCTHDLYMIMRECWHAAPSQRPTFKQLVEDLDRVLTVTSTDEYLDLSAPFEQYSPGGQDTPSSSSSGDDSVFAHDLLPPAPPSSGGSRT
row,Sequence,phosphorylation enrichment
1,QGGRRYMMIVD [GAA_Y438],0.367
2,CCKNRYDKDKP [THAP1_Y14_G9C],0.419
3,RPASQYPHQVP [ADAM12_Y895_P893S],0.403
4,KMKGDYYCYLA [YWHAG_Y130_R132C],9.02
5,HESEIYGKVCY [CSRP3_Y57_C58G],0.808
6,EESREYDRLYE [PIK3R1_Y463_K459E],1.19
7,WNRDKYAATTT [TRIM39_Y439_G436R],0.34
8,CEAMEYLESKQ [BTK_Y511],1.01
9,VLAAQYTTVGR [SGSH_Y240_D235V],0.48
10,PLAVPYLDKPP [JMJD7_Y31],0.769
11,IPKTWYSAEQF [CD207_Y217],0.538
12,NTYEKYLGEEY [TF_Y669],0.756
13,RAIGFYSATSK [FAM120A_Y328_YF],0.805
14,SIIKDYFHRGT [GATM_Y203_A208T],0.542
15,RIVRKYKKVRF [F8_Y442_G439V],0.765
16,GLRFGYGVLGG [KRTAP20-2_Y15_YF],0.574
17,SVTFTYSPALN [TP53_Y126_C124Y_YF],0.697

row,Sequence,phosphorylation enrichment
1,IRCQGYSHRIL [MYO3B_Y993_R990C],0.506
2,IDSTPYGQWFE [RPS8_Y109_R110G_YF],0.89
3,SVQIVYKPVDL [MAPT_Y627],0.65
4,GSPPPYRRRKR [MBD1_Y403],0.601
5,EEGNPYFSSTR [MCCC2_Y520_A524T_YF],0.621
6,PPGRSYSPYDY [TNS1_Y793],0.855
7,VHNLNYYKKTT [FGFR3_Y647_D646N],0.665
8,APGDAYGDAGY [SYP_Y250],0.615
9,GDYLSYREFHS [ERBIN_Y1107],3.56
10,GGCQEYTGAPF [NAXD_Y85_YF],0.8
11,HSDFQYSQRSQ [PKP2_Y168_YF],0.608
12,GAALAYGLDKS [HSPA9_Y230_A225G],0.474
13,GVFSRYFTTFD [CLCA1_Y661_YF],0.631
14,TSPKSYPSQKH [CAP2_Y316],0.497
15,PLDAEYFTLQI [TP53_Y327_G325A],6.59
16,VNYGAYINDFN [GLB1_Y488_K493N],0.616
